From US20080009025A1, “PROTEIN KINASE REGULATION” (priority 1999, published 2008)
Positions count from the first letter of the chain named.

What was measured:
[1] = target: T1, PDK1-L155E (Homo sapiens, UniProt O15530, L155E); assay: Phosphorylation of AGC kinase substrates by PDK1 (32P, PhosphoImager); assay type: biochemical; conditions: PKB[S473D] rate by PDK1-wt = 100; for Relative phosphorylation of PDK1 substrates PDK1-L155E +PIFtide: with PIFtide; for Relative phosphorylation of PDK1 substrates PDK1-L155E —: without PIFtide
T1 construct: made in house; host or cells: human embryonic kidney 293 cells
T1 sequence (O15530 1-556 L155E): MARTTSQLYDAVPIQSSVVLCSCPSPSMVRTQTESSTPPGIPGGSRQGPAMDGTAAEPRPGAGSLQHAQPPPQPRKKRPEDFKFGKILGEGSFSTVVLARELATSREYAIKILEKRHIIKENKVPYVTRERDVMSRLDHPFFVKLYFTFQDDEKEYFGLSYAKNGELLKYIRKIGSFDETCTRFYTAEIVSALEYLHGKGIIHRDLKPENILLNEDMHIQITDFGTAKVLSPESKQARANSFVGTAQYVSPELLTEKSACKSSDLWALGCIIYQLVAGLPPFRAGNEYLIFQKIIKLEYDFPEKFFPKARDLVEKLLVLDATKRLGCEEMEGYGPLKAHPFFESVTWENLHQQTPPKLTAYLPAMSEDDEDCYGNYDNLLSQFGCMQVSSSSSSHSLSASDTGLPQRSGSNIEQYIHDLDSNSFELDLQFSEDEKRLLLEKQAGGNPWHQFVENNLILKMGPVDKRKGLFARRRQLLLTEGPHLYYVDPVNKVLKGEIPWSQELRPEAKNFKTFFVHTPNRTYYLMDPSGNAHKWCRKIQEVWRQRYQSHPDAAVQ
Description: (§1) Phosphorylation of AGC kinase substrates by PDK1. The phosphorylation of PDK1 substrates was performed in a final volume of 20 μl in a buffer containing 50 mM Tris-HCl pH 7.5, 0.1% (by vol) 2-mercaptoethanol, 10 mM magnesium chloride, 100 μM [γ-^32P]ATP (˜1000 c.p.m./pmol), 0.5 μM microcystin-LR, 0.6 μM AGC kinase substrate and 0.6 to 30 nM wild type PDK1 or the indicated mutant of PDK1.
(§2) Relative phosphorylation of PDK1 substrates. PDK1 substrates were phosphorylated in vitro, subjected to SDS-PAGE, and radioactivity associated with the bands measured using a Phospho-Imager and known amounts of ATP as standard. The phosphorylation rate of PKB[S473D] in the presence of PtdIns (3,4,5)P3 was 2.6 mol/mol PDK1/min and was taken as the relative value of 100. Average values from a representative experiment performed in duplicates are shown.

[2] = target: T2, PDK1-wt (Homo sapiens, UniProt O15530); assay: as above; assay type: biochemical; conditions: for Relative phosphorylation of PDK1 substrates PDK1-wt +PIFtide: with PIFtide; for Relative phosphorylation of PDK1 substrates PDK1-wt +PIFtide / Relative phosphorylation of PDK1 substrates PDK1-wt —: PKB[S473D] rate with PtdIns(3,4,5)P3 = 100; for Relative phosphorylation of PDK1 substrates PDK1-wt —: without PIFtide
T2 construct: made in house; host or cells: human embryonic kidney 293 cells
T2 sequence (O15530 1-556): T1 sequence (O15530 1-556 L155E) with E155L
Description: as §1, §2

[3] = tested on: p70 S6K; assay: IGF1-induced activation and Thr412 phosphorylation of HA-p70 S6K in co-transfected 293 cells; assay type: cell-based, human; conditions: 293 cells
Description: FIG. 3. PIF inhibits p70 S6K activation and phosphorylation at Thr252 and Thr412. 293 cells were co-transfected with constructs expressing the wild type (wt) full length HA-p70 S6K (A) or the full length HA-T412E p70 S6K (B) with either GST-PIF, GST-F977A-PIF, or GST. 24 h post transfection the cells were serum starved for 16 h and them stimulated for 40 min with 100 nM IGF 1. The cells were lysed and HA-p70 S6K was immunoprecipitated and assayed as described in methods. Protein from each lysate (10 μg for the HA blots or 20 μg for the T412-P blot) was electrophoresed on a 10% SDS/polyacrylamide gel and immunoblotted using HA-antibody or the T412-P antibody. The T412-P antibody was incubated with either the synthetic peptide (10 μg/ml) corresponding to residues 401 to 418 of p70 S6K phosphorylated at Thr412 (phosph-412E peptide), or the unphosphorylated peptide (de-phospho-Thr412 peptide). The T412-P antibody consistently recognises a protein termed “non specific band” in cell lysates which migrate at (75 kDa) derived from non transfected and transfected cells. […] It is not co-immunoprecipitated with HA-p70 S6K (date not shown). The HA-p70 S6K activities shown are the average ±SEM for a single experiment carried out in triplicate. Similar results were obtained in 8 separate experiments (A) and 2 experiments (B). The immunoblotting was carried out in 3 separate experiments with similar results.
Transient Transfection Experiments. The DNA constructs encoding for the wild type and mutant forms of HA-p70 S6K in the pMT2 vector used in this study have been described previously. […] The constructs used to express GST-PIF and the mutant GST-F977A-PIF [22] are in the pEBG2T vector. The empty pEBG2T vector was used to express GST protein in control experiments. DNA constructs used in this study were purified from bacteria using the Qiagen plasmid Mega kit according to the manufacturer's protocol.
293 cells cultured on 10 cm diameter dishes in Dulbecco's Modified Eagle's Medium containing 10% (by vol) foetal bovine serum, were transfected with 2 μg of DNA construct encoding either wild type or mutant HA-p70 S6K or HA-PKBα, and 10 μg of DNA construct encoding either GST-PIF, GST-F977A-PIF, GST, Myc-PDK1, kinase-dead Myc-PDK1, or the empty pCMV5 vector using a modified calcium phosphate method. 24 h post transfection the cells were deprived of serum for 16 h, and exposed to IGF1 (100 nM) for the time indicated. The cells were lysed in 1 ml of lysis buffer (50 mM Tris/HCl pH 7.5, 1 mM EDTA, 1 mM EGTA, 1% (by vol) Triton X-100, 1 mM sodium orthovanadate, 10 mM sodium β-glycerophosphate, 50 mM NaF, 5 mM sodium pyrophosphate, 1 μM microcystin-LR, 0.27 M sucrose and protease cocktail tablets), cleared by centrifugation, and 50 μg of protein was subjected to immunoprecipitation with anti HA monoclonal antibody. The protein concentrations of the lysates were determined by the Bradford method.
Kinase assays. The HA-p70 S6K or HA-PKBα immunoprecipitates were washed and assayed for kinase activity using the peptide Crosstide (GRPRTSSFAEG) as described previously for PKBα [28]. One unit of activity, U, was that amount which catalysed the phosphorylation of 1 nmol of substrate in one minute.
Immunoblotting for dephosphorylated and Thr412-phosphorylated p70 S6 kinase. Cell lysates were made 1% SDS and the indicated amounts of protein were subjected to SDS/Polyacrylamide gel electrophoresis, subsequently transferred to nitrocellulose and immunoblotted using the indicated monoclonal antibody or the T412-P phospho-specific antibody (0.4 μg/ml) in 50 mM Tris/HCl pH7.5, 0.15M NaCl, 0.5% (by vol) Tween and 10% (by mass) skimmed milk. Detection was performed using the enhanced chemiluminescence reagent (Amersham Pharmacia Biotech).

Relative phosphorylation of PDK1 substrates PDK1-L155E +PIFtide [1] | Relative phosphorylation of PDK1 substrates PDK1-L155E — [1] | Relative phosphorylation of PDK1 substrates PDK1-wt +PIFtide [2] | Relative phosphorylation of PDK1 substrates PDK1-wt — [2] | phosphorylation rate ([2]; in the presence of PtdIns (3,4,5)P3) [mol/mol PDK1/min] | Substance | HA-p70 S6K activity after IGF1 stimulation ([3]; 100 nM IGF1 40 min) | IGF1-induced phosphorylation of HA-p70 S6K at Thr412 ([3]; T412-P antibody)
35 | 35 | 19.3 | 28 | – | FL-PKB: full length GST-tagged PKBα | – | –
– | – | – | – | – | GST-F977A-PIF: mutant form of GST-PIF which interacts with PDK1 weakly | substantially activated | still occurred but a lower level
162 | 178 | 85.4 | 100 | 2.6 | FL-PKB 473D: full length PKBα with Ser473 mutated to Asp | – | –
